Measured values as given in patent US20210221899A1 (published 2021).

T1: human NGF (human, UniProt P01138 122-241)
T1 construct: also called human Nerve Growth Factor; hN
T1 chain: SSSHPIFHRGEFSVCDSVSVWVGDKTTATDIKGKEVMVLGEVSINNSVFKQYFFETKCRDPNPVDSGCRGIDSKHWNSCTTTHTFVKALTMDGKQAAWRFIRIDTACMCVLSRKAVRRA

B1: humanized mAb can48L2VH_HM855323.1 / can48L2VL_Z22192.1 (antibody, V domains shown)
VH: EVQLVESGGGLVKPGGSLRLSCAASGFTFSTYGINWVRQAPGKGLEWVSYISSGGSSTYYADSVKGRFTISRDNAKNSLYLQMNSLRAEDTAVYYCAGSRYTYAYGGGYEFHFWGQGTLVTVSS
VL: QSVVTQPPSVSGAPGQRVTISCTGSTMDIDIFGVSWYQQLPGTAPKLLIYGDGDRPSGVPDRFSGSKSGASASLAITGLQAEDEADYHCQSGDSTLGALAIFGGGTHVTVL
B2: humanized mAb can48L2VH_HM855323.1 / can48L2VL_Z22192.1_P14L (antibody, V domains shown)
VH: EVQLVESGGGLVKPGGSLRLSCAASGFTFSTYGINWVRQAPGKGLEWVSYISSGGSSTYYADSVKGRFTISRDNAKNSLYLQMNSLRAEDTAVYYCAGSRYTYAYGGGYEFHFWGQGTLVTVSS
VL: QSVVTQPPSVSGALGQRVTISCTGSTMDIDIFGVSWYQQLPGTAPKLLIYGDGDRPSGVPDRFSGSKSGASASLAITGLQAEDEADYHCQSGDSTLGALAIFGGGTHVTVL
B3: humanized mAb can48L2VH_HM855323.1 / can48L2VL_Z22192.1_P8A (antibody, V domains shown)
VH: EVQLVESGGGLVKPGGSLRLSCAASGFTFSTYGINWVRQAPGKGLEWVSYISSGGSSTYYADSVKGRFTISRDNAKNSLYLQMNSLRAEDTAVYYCAGSRYTYAYGGGYEFHFWGQGTLVTVSS
VL: QSVVTQPASVSGAPGQRVTISCTGSTMDIDIFGVSWYQQLPGTAPKLLIYGDGDRPSGVPDRFSGSKSGASASLAITGLQAEDEADYHCQSGDSTLGALAIFGGGTHVTVL
B4: humanized mAb can48L2VH_HM855336.1 / can48L2VL_Z22192.1 (antibody, V domains shown)
VH: EVQLVESGGGLVQPGGSLRLSCAASGFTFSTYGMNWVRQAPGKGLEWVSYISSGGSSIYYADSVKGRFTISRDNAKNSLYLQMNSLRAEDTAVYYCAGSRYTYAYGGGYEFHFWGQGTLVTVSS
VL: QSVVTQPPSVSGAPGQRVTISCTGSTMDIDIFGVSWYQQLPGTAPKLLIYGDGDRPSGVPDRFSGSKSGASASLAITGLQAEDEADYHCQSGDSTLGALAIFGGGTHVTVL
B5: humanized mAb can48L2VH_HM855336.1 / can48L2VL_Z22192.1_P8A (antibody, V domains shown)
VH: EVQLVESGGGLVQPGGSLRLSCAASGFTFSTYGMNWVRQAPGKGLEWVSYISSGGSSIYYADSVKGRFTISRDNAKNSLYLQMNSLRAEDTAVYYCAGSRYTYAYGGGYEFHFWGQGTLVTVSS
VL: QSVVTQPASVSGAPGQRVTISCTGSTMDIDIFGVSWYQQLPGTAPKLLIYGDGDRPSGVPDRFSGSKSGASASLAITGLQAEDEADYHCQSGDSTLGALAIFGGGTHVTVL
B6: humanized mAb can9L12VH_HM855939 / can9L12VL (antibody, V domains shown)
VH: QVQLVESGGGVVQPGGSLRLSCAASGFTFSSHGMHWVRQAPGKGLEWVSVINSGGSSTYYADSVKGRFTISRDNSKNTLYLQMNSLRAEDTAVYYCAKESVGGWEQLVGPHFDYWGQGTLVIVSS
VL: QSVLTQPTSVSGSLGQRVTISCSGSTNNIGILGASWYQLFPGKAPKLLVYGNGNRPSGVPDRFSGADSGDSVTLTITGLQAEDEADYYCQSFDTTLGAHVFGGGTHLTVL
B7: humanized mAb can9L12VH_X92218 / can9L12VL (antibody, V domains shown)
VH: EVQLVESGGGLVQPGGSLRLSCAASGFTFSSHGMSWVRQAPGKGLEWVSVINSGGSSTYYADSVKGRFTISRDNSKNTLYLQMNSLRAEDTAVYYCAKESVGGWEQLVGPHFDYWGQGTLVIVSS
VL: QSVLTQPTSVSGSLGQRVTISCSGSTNNIGILGASWYQLFPGKAPKLLVYGNGNRPSGVPDRFSGADSGDSVTLTITGLQAEDEADYYCQSFDTTLGAHVFGGGTHLTVL
B8: humanized mAb can9L12VH / can9L12VL_M94116_65698 (antibody, V domains shown)
VH: EVQLVESGGDLVKPGGSLRLSCVASGFTFSSHGMHWVRQSPGKGLQWVAVINSGGSSTYYTDAVKGRFTISRDNAKNTVYLQMNSLRAEDTAMYYCAKESVGGWEQLVGPHFDYWGQGTLVIVSS
VL: QSVLTQPTSVSGAPGQRVTISCTGSTNNIGILGVHWYQQLPGTAPKLLIYGNGNRPSGVPDRFSGADSGDSVSLAITGLQAEDEADYYCQSFDTTLGAHVFGGGTHLTVL

Molecular target: T1, human NGF
Test: SPR (Biacore), human NGF amine-coupled on chip, antibody injected
Description: Antibody binding affinities of the antibodies against human NGF (SEQ ID NO.66) were determined by surface plasmon resonance (SPR). Human NGF was immobilized on the surface of a BIACORE chip by direct amine coupling. Various concentrations of the described humanized anti-NGF antibodies were injected over the human NGF surfaces while the association of the antibody to the antigen and the dissociation of the formed complex were monitored in real time. Kinetic analysis was performed to obtain the equilibrium dissociation constant (KD).
Binder B1 has a Kd of 1.54 nM, a koff of 0.000256 s⁻¹ and a kon of 167000 M⁻¹ s⁻¹. For B2, the Kd was 0.00102 nM, the koff was 1.46e-07 s⁻¹ and the kon was 144000 M⁻¹ s⁻¹. For B3, the Kd was 1.54 nM, the koff was 0.000315 s⁻¹ and the kon was 205000 M⁻¹ s⁻¹. B4 showed a Kd of 1.25 nM, a koff of 0.000337 s⁻¹ and a kon of 269000 M⁻¹ s⁻¹. Binder B5 has a Kd of 0.841 nM, a koff of 0.000212 s⁻¹ and a kon of 252000 M⁻¹ s⁻¹. B6 showed a Kd of 4.12 nM, a koff of 0.00161 s⁻¹ and a kon of 390000 M⁻¹ s⁻¹. Binder B7 has a Kd of 0.126 nM, a koff of 3.78e-05 s⁻¹ and a kon of 301000 M⁻¹ s⁻¹. B8 gave a Kd of 9.19 nM, a koff of 0.00197 s⁻¹ and a kon of 214000 M⁻¹ s⁻¹.
